This is an account of results in patent US8653039 (INDIANA UNIVERSITY RESEARCH AND TECHNOLOGY CORPORA, dated 2014).

Assay [1] has as its target cancer specific isoform of proliferating cell nuclear antigen (caPCNA) (human) (UniProt P12004). Description: capture ELISA, XPG-GST on the plate, cell extracts, detection with C20 anti-PCNA antibody. For orientation: ELISA stands for enzyme-linked immunosorbent assay.
In assay [2] the target is T1, cancer specific isoform of proliferating cell nuclear antigen (caPCNA) (human, UniProt P12004 1-261, acidic isoform; the filing says it differs from nmPCNA by post-translational modification, not by a genetic change; the residues are not stated).
T1 construct: Native protein from MCF7 cell extract, nuclear extract or synthesome fraction, or 'isolated/purified caPCNA' in the ELISAs; also called csPCNA; ca(cs)PCNA
Description: competition ELISA, caPCNAab on the plate, purified caPCNA, XPG peptide in increasing amounts. How it is done: The wells are washed and then incubated with a goat anti-PCNA antibody (C20) that recognizes the C-terminal 20 amino acids of PCNA. Bound C20 antibody is visualized with an alkaline phosphatase conjugated anti-goat IgG antibody, and bound antibody complex is visualized with […], and quantified by spectrophotometry. The competition experiments shown in this study involve the simultaneous incubation of the ca(cs)PCNA with increasing amounts of the antigenic peptide fragment of caPCNA (referred to as B1 or the PCNA aa126-133 peptide) in this assay.
The ELISA described herein was used to monitor the ability of two peptides to disrupt caPCNA binding to the bound caPCNA antibody. One peptide (H-Gly-Arg-Lys- […] OH) (SEQ ID NO: 29) corresponding to the p21cip/waf1 proteins site of interaction with PCNA was evaluated in this assay, and is shown to have no effect on the binding of caPCNA to the bound caPCNA antibody in this ELISA assay (FIG. 7). […] Therefore, the XPG peptide interacts with its recognized PCNA binding site in order to block binding of the PCNA protein to the caPCNA antibody. This happens if the epitope recognized by the antibody was masked by specifically binding this XPG peptide.

Where no end group is shown, it is not given here.

Sequence of cancer specific isoform of proliferating cell nuclear antigen (caPCNA) (human) (P12004 whole entry, canonical isoform): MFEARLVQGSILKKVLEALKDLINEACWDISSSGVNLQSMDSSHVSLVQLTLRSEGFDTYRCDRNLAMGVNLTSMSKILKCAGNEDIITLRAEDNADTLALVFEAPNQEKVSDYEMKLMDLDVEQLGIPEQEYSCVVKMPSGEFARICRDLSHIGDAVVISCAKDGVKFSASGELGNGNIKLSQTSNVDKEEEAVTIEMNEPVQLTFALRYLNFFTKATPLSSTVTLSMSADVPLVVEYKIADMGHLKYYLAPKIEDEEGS
T1 sequence (P12004 whole entry, canonical isoform): as above

LKQLDAQQTQLRIDSFFRLAQQEKEDAKR (peptide, UniProt P28715 981-1009, looked up, not shown: a dimerising Fc or GST, also: fused to GST, order of parts and linker not given here) [XPG-GST fusion protein] yielded a fold colored product (absorbance at 405 nm), MCF7 extract against MCF10A extract in assay [1] of 3 fold.

For the molecule H-QTQLRIDSFFR-OH [XPG peptide corresponding to the XPG-PCNA interaction site of the XPG protein], the binding result in assay [2] is “binds”.
